# Results published in the Human Domainome abundance scans (Beltran et al. 2025).
# ± gives the uncertainty stated by the source.
# B1: POU domain, class 2, transcription factor 2, residues 200 to 269; numbered along this chain, P09086 (parent)
# chain: LEELEQFARTFKQRRIKLGFTQGDVGLAMGKLYGNDFSQTTISRFEALNLSFKNMCKLKPLLEKWLNDAE
# Variants of: B1
# Test: abundance fitness (aPCA) (normalised: wild type 0, dead -1); higher = more abundant; growth selection in yeast, the domain comes from the species named
# Conditions: Homo sapiens
row,Variant,abundance fitness
1,L66Y,-0.047 ± 0.16
2,L66S,-0.238 ± 0.043
3,L58D,-0.576 ± 0.074
4,L58M,-0.011 ± 0.067
5,L58R,-0.259 ± 0.03
6,L58H,-0.221 ± 0.11
7,L58C,-0.067 ± 0.063
8,L58K,-0.099 ± 0.06
9,G34A,-0.071 ± 0.046
10,G34L,-0.208 ± 0.032
11,G34C,-0.143 ± 0.051
12,G34W,-0.207 ± 0.044
13,G34P,-0.081 ± 0.053
14,G34N,-0.068 ± 0.09
15,G34Q,0.087 ± 0.065
16,M55F,-0.127 ± 0.06
17,M55I,-0.175 ± 0.061
18,M55A,-0.022 ± 0.023
19,M55R,-0.502 ± 0.028
20,L62P,-0.93 ± 0.27
21,L62T,-0.501 ± 0.1

row,Variant,abundance fitness
1,F45A,-0.78 ± 0.095
2,F45Q,-0.977 ± 0.19
3,F45I,-0.546 ± 0.17
4,T10C,-0.084 ± 0.022
5,T10A,-0.035 ± 0.018
6,T10P,-1 ± 0.025
7,T10R,-0.022 ± 0.017
8,F20K,0.005 ± 0.063
9,F20L,-0.004 ± 0.031
10,F20Y,-0.111 ± 0.1
11,F20P,-1.01 ± 0.17
12,F20I,-0.101 ± 0.1
13,F20N,-0.427 ± 0.17
14,E3M,-0.443 ± 0.18
15,E3L,-0.137 ± 0.036
16,E3D,-0.087 ± 0.14
17,E3K,-0.189 ± 0.083
18,D68H,-0.205 ± 0.14
19,D68C,-0.053 ± 0.066
20,D68R,-0.022 ± 0.029
21,D68E,-0.047 ± 0.052

row,Variant,abundance fitness
1,N49L,-0.032 ± 0.034
2,N49Y,-0.249 ± 0.096
3,A28V,-0.01 ± 0.041
4,A28Q,0.061 ± 0.074
5,A28T,0.031 ± 0.069
6,A28C,-0.108 ± 0.051
7,A28N,-0.095 ± 0.088
8,A28P,-0.616 ± 0.068
9,A28H,-0.064 ± 0.034
10,C56E,0.002 ± 0.045
11,C56F,-0.034 ± 0.052
12,C56Q,0.062 ± 0.067
13,C56Y,-0.196 ± 0.068
14,C56K,0.015 ± 0.055
15,C56L,0.007 ± 0.03
16,C56N,-0.064 ± 0.083
17,T40F,-0.041 ± 0.096
18,T40S,0.032 ± 0.049
19,T40L,-0.078 ± 0.06
20,T40C,-0.038 ± 0.063
21,T40M,-0.058 ± 0.085

row,Variant,abundance fitness
1,T40R,-0.021 ± 0.032
2,F52R,0.032 ± 0.036
3,F52C,-0.062 ± 0.061
4,F52Q,-0.087 ± 0.084
5,F52M,-0.105 ± 0.11
6,F52G,-0.053 ± 0.039
7,F52N,-0.069 ± 0.18
8,N54R,-0.005 ± 0.042
9,N54E,0.058 ± 0.088
10,N54S,0.042 ± 0.043
11,N54T,0.023 ± 0.09
12,N54G,-0.017 ± 0.042
13,S43T,-0.05 ± 0.046
14,S43I,-0.024 ± 0.093
15,S43Q,0.095 ± 0.11
16,S43W,-0.047 ± 0.045
17,S43H,-0.034 ± 0.034
18,G26H,-0.109 ± 0.12
19,G26K,-0.113 ± 0.041
20,G26A,-0.067 ± 0.047
21,G26P,-0.299 ± 0.05
